{"source": "patent US20120251444A1", "target": "LRP1 on wild-type CHO-K1 cells", "assay": "cell-based or functional assay"}
{"substance": "mini-RAPc (Hep1) combined with equimolar streptavidin-saporin conjugate (ZAP) (from UniProt P22629 37-163)", "values": [{"measurement": "reduction of viable cell number (MTT assay, 100 nM, 48 hours)", "result": 40, "unit": "%"}]}
